Test results: patent US20050059089A1 (priority 2003, published 2005)

Target: T1, GPCR135 (Homo sapiens, UniProt Q9NSD7)
T1 sequence (Q9NSD7 1-469): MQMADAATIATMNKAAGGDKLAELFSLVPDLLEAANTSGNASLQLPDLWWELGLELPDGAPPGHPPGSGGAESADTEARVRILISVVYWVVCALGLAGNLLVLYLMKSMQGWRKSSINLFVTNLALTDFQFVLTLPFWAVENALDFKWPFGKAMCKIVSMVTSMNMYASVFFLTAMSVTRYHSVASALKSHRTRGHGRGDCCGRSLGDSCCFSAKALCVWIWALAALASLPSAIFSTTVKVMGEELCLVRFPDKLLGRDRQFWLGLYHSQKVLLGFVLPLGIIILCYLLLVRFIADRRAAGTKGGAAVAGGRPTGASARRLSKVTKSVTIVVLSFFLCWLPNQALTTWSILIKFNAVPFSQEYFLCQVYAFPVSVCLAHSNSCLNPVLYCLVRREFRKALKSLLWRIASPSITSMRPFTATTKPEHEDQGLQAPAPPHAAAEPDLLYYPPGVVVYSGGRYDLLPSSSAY
Test: Inhibition of forskolin-stimulated cAMP (CRE-β-galactosidase) in SK-N-MC cells
Assay type: cell-based
Design: expressed in transfected cells
Conditions: SK-N-MC cells stably expressing GPCR135
Description: SK-N-MC cells stably expressing GPCR142 were established by transfection of GPCR142 expressing plasmids into SK-N-MC cells harboring a β-galactosidase gene under control of multiple cAMP responsive elements. The stable transfectants were selected by culturing the transfected cells under G418 selection (400 mg/L). The receptor expressing cells were seeded in 96-well plates at a cell density of 30,000 cells/well. After 24 h, cells were stimulated with forskolin or different peptides. Cells were cultured for an additional 6 h and the intracellular β-gal activity, which represents the intracellular cAMP accumulation, was measured as described by Liu et al. (2000), Mol. Pharmacol., 59, 420-426.
The same experiment was performed using GPCR135.

relaxin3: Human relaxin3 (SEQ ID NO: 6), produced recombinantly; mature peptide of A- and B-chain linked by disulfide bridges
inhibition of forskolin induced β-galactosidase expression: dose-dependently inhibits
